Data from article PMC7743911 (Nature communications, 2015).
Several values for one entry are separate records, joined by “and”; a condition that tells them apart may be missing. Identical values can stand only once. Non-standard residues stand in square brackets, D forms with d. No end group written: not given here. pY = N[C@@H](Cc1ccc(OP(=O)(O)O)cc1)C(=O)O

Legend:
[1] = target: T1, STAT5B wild type (residues 128 to 717), non-phosphorylated (human, UniProt P51692 128-717); test: SPR
T1 sequence (looked up): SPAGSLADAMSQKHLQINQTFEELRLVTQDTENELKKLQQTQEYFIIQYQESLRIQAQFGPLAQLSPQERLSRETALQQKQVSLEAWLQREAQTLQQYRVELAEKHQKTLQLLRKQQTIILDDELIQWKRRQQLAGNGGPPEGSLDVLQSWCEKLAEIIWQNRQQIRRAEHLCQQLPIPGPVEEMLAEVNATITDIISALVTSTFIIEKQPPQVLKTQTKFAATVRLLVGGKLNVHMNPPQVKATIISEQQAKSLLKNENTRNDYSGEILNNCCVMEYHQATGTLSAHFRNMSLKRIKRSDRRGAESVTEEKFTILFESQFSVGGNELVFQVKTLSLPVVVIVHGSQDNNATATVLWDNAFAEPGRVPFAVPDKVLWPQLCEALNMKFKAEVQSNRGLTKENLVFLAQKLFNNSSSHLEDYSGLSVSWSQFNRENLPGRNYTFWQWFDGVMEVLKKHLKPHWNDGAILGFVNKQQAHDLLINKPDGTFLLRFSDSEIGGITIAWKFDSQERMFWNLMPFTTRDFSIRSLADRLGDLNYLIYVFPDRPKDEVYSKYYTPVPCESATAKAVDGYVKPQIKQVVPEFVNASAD

[2] = target: T2, STAT5B N642H mutant (residues 128 to 717), non-phosphorylated (human, UniProt P51692 128-717, N642H); test: SPR
T2 sequence (looked up): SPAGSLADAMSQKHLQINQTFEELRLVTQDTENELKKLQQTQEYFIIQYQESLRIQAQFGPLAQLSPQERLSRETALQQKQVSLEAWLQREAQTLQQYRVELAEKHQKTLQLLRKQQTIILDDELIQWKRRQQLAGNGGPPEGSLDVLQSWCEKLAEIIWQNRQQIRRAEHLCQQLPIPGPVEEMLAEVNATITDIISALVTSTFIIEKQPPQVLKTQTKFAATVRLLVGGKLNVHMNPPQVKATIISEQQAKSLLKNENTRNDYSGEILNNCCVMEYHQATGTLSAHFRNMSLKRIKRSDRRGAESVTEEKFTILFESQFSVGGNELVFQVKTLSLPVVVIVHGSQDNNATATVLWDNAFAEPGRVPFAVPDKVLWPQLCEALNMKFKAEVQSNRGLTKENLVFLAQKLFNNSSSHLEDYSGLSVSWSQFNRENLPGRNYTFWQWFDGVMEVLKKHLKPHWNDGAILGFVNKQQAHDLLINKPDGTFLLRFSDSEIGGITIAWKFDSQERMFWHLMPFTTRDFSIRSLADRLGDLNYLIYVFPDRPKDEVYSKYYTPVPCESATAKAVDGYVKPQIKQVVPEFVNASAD

Kd [1]: 15.6 µM and 14 µM | Kd [2]: 3.23 µM and 2.9 µM
B1: STAT5B phosphopeptide KAVDG(p)YVKPQI (peptide)
peptide: KAVDG[pY]VKPQI
